We go through 1 protein from paper PMC6256756.

Substrate in this data set: Nc1nc2c(ncn2[C@@H]2O[C@H](COP(=O)(O)OP(=O)(O)OP(=O)(O)O)[C@@H](O)[C@H]2O)c(=O)[nH]1
Description: steady-state kinetics, PK/LDH coupled GTPase assay (Km). Conditions: Mg2+ GTP binding site. The format is biochemical, Burkholderia cenocepacia.

B1: FtsZ (BcFtsZ) (Burkholderia cenocepacia J2315) (protein)
chain: MEFEMLETETNGTIIKVVGVGGAGGNAVQHMINRGVQGVDFIVMNTDAQALSRSRASSVIQLGNTGLGAGAKPEMGRAAAEEARERIADALRGAHMVFITAGMGGGTGTGAAPVVAQIAKEMGILTVGVVSKPFEFEGGKRMRVAEAGSQQLEDHVDSLIVVLNDKLFDVMGDDAEMDKCFQCADDVLNNAVAGIAEIINVDGLVNVDFEDVKTVMGEQGKAMMGTATVAGVDRARLAAEQAVASPLLEGVDLSGARGVLVNITSSRSLRLSETREVMNTIKSYAAEDATVIFGAVYDDAMGDALRVTVVATGLGRAAKKQQSAPMTLLRTGTDNQPVSAVSHGYAPAQHVSTADYGALDTPAVWRNSRETAASHVQALQEKGVDTYDIPAFLRKQAD
notes: recombinant BcFtsZ (BCAL3457) from pET-28a, N-terminal histidine tag removed with PreScission protease
The Km is the concentration of substrate that gives half-maximal velocity. On to B1, for which the Km turned out to be 6.4 ± 0.8 µM.
